Measurements from publication PMC6677818.

What was measured:
[1] = biological target: calcineurin, WT CN (CNA_(1–370):CNB_(1–170)) (human) (UniProt Q08209)
[2] = biological target: calcineurin, WT CN (CNA_(1–370):CNB_(1–170)) (human) (UniProt Q08209); experiment: ITC; NHE1 or variants (30–50 µM, syringe) titrated into CN (5–10 µM, cell), 25 °C, 20 mM Tris–HCl pH 7.5, 100 mM NaCl, 1 mM CaCl2, 0.5 mM TCEP; single site-binding model
[3] = biological target: CNA alone (alpha isoform: H27-D348; two C-terminal Asp residues added) (human) (UniProt Q08209)
[4] = biological target: CNAA variant (CNA: H155A/Y159A, CNB), crystallisation construct CNA M1-N370 H155A Y159A, CNB 16–170 (human) (UniProt Q08209)

Chain of UniProt Q08209 (Q08209 other isoform, or with tags, fused parts or gaps): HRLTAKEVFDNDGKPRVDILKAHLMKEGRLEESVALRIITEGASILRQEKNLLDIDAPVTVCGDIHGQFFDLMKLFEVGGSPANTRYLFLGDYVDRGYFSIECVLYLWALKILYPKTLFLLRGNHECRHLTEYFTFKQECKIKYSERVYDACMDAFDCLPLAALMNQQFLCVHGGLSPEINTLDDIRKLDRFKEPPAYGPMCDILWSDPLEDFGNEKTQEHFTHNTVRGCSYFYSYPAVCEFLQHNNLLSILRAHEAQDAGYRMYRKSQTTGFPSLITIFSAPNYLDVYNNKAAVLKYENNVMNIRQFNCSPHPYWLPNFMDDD

Substance	apparent in vitro dephosphorylation rate k (dephos) of pT779 of ERK2-phosphorylated NHE1ct variant by CN (NMR time course) [1]	Kd [2]	dH [2]	apparent in vitro dephosphorylation rate k (dephos) of pT779 of ERK2-phosphorylated NHE1ct by CNA alone (NMR time course) [3]	apparent in vitro dephosphorylation rate k (dephos) of pT779 of ERK2-phosphorylated NHE1ct by CNAA (NMR time course; 20:1 NHE1ct:CN, rate normalized using wt-NHE1ct) [4]	stoichiometry N [2]
NHE1ct P782A (NHE1 I680-Q815) (from UniProt P19634 680-815) (domain or fragment)	0.028 h^-1	48 nM	-2.8 kcal/mol			
NHE1ct WT (human NHE1 I680-Q815) (from UniProt P19634 680-815) (domain or fragment)		59 nM	-12 kcal/mol	0.347 h^-1	0.06 h^-1	1
NHE1ct_(ATAP) (NHE1 I680-Q815, L684A, V686A) (from UniProt P19634 680-815) (domain or fragment)	0.642 h^-1	4800 nM	-4.5 kcal/mol			
NHE1ct_(ATAP/AVATAA) (NHE1 I680-Q815, L684A, V686A, P715A, I717A, I719A, D720A) (from UniProt P19634 680-815) (domain or fragment)	0.811 h^-1					
NHE1ct_(AVATAA) (NHE1 I680-Q815, P715A, I717A, I719A, D720A) (from UniProt P19634 680-815) (domain or fragment)	0.011 h^-1	2400 nM	-7.6 kcal/mol			
NHE1ct_(Δ92RARA) (NHE1ctΔ92 698AAA700; R698A, R700A) (from UniProt P19634 680-723) (domain or fragment)		21 nM	-12.2 kcal/mol			
NHE1ctΔ92 (NHE1 I680-S723) (from UniProt P19634 680-723) (domain or fragment)		21 nM	-8.5 kcal/mol			
NHE1ctΔ92 (PVIVIT) (from UniProt P19634 680-723) (domain or fragment)		4 nM	-9 kcal/mol			
PxIxIT peptide (NHE1 E709-P727) (from UniProt P19634 709-727)		6500 nM	-2.9 kcal/mol			
